The results in this text go back to PMC7022712, “Functional Analysis of DNMT3A DNA Methyltransferase Mutations Reported in Patients with Acute Myeloid Leukemia”.

One series concerns the target Dnmt3a-CD F162V (Mus musculus, UniProt O88508 608-908, F748V). Kind of series: fluorescence polarization; 100 uM AdoHcy; no plateau reached; Buffer A: 20 mM HEPES pH 7.5, 100 mM KCl, 1 mM EDTA, 1 mM DTT, 100 uM AdoHcy, 25 C; DNA 100 nM (Methods) or 10 nM (Figure 6 legend); Hill fit. The following applies: protein: recombinant; tags: C-terminal His6; chain copies: 2; label: 5'-FAM on strand 1 via aminohexyl linker; blunt.

For a further series, the target named is Dnmt3a-CD R146H (Mus musculus, UniProt O88508 608-908, R732H). Kind of series: fluorescence polarization; 100 uM AdoHcy; Buffer A: 20 mM HEPES pH 7.5, 100 mM KCl, 1 mM EDTA, 1 mM DTT, 100 uM AdoHcy, 25 C; DNA 100 nM (Methods) or 10 nM (Figure 6 legend); Hill fit. The following applies: protein: recombinant; tags: C-terminal His6; chain copies: 2; label: 5'-FAM on strand 1 via aminohexyl linker; blunt.

The target of a further series is Dnmt3a-CD R45W (Mus musculus, UniProt O88508 608-908, R631W). Described as above. Particulars: protein: recombinant; tags: C-terminal His6; chain copies: 2; label: 5'-FAM on strand 1 via aminohexyl linker; blunt.
The target of another series is Dnmt3a-CD S124C (Mus musculus, UniProt O88508 608-908, S710C). The series is described as above. Particulars: protein: recombinant; tags: C-terminal His6; chain copies: 2; label: 5'-FAM on strand 1 via aminohexyl linker; blunt.
The target in the next series is Dnmt3a-CD WT (Mus musculus, UniProt O88508 608-908). The series is described as above. Particulars: protein: recombinant; tags: C-terminal His6 (Results); chain copies: 2; label: 5'-FAM on strand 1 via aminohexyl linker; blunt.
Chain of Dnmt3a-CD WT (O88508 608-908): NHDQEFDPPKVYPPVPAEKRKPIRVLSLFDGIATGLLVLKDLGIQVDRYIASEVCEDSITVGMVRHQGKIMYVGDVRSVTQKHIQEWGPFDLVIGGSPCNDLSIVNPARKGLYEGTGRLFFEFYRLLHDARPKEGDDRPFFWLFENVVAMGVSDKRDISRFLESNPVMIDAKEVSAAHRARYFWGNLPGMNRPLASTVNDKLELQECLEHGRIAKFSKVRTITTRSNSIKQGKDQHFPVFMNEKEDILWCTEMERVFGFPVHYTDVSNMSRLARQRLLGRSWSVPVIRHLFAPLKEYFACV

Chain of Dnmt3a-CD R146H (O88508 608-908 R732H): as the sequence (O88508 608-908) above, with R125H counted along it
Chain of Dnmt3a-CD R45W (O88508 608-908 R631W): as the sequence (O88508 608-908) above, with R24W counted along it
Chain of Dnmt3a-CD F162V (O88508 608-908 F748V): as the sequence (O88508 608-908) above, with F141V counted along it
Chain of Dnmt3a-CD S124C (O88508 608-908 S710C): as the sequence (O88508 608-908) above, with S103C counted along it

B1: fCG/CG (dsDNA)
DNA 1: CTGAATACTACTTGCGCTCTCTAACCTGAT
DNA 2: ATCAGGTTAGAGAGCGCAAGTAGTATTCAG
Consider B1, for which the values for the Kd in the series with Dnmt3a-CD F162V, with Dnmt3a-CD S124C and with Dnmt3a-CD WT were 232 ± 32 nM, 127 ± 44 nM and 77 ± 6 nM, respectively. Further, the binding result in the series with Dnmt3a-CD R146H and with Dnmt3a-CD R45W was “no binding” throughout.
